These results are taken from publication PMC2988878 (Nature structural & molecular biology, 2010).

Data set [1] concerns the target Pup (Mycobacterium tuberculosis) (UniProt P9WHN5). The data set is described as follows: anisotropy. The conditions noted are these: cited from earlier work.
The data set “crystal structure” deals with the molecule itself. The data set is described as follows: crystal structure.
Data set [2] has as its target T1, Mycobacterium proteasomal ATPase Mpa, residues 1-234 (Mpa1-234) (Mycobacterium tuberculosis, UniProt P9WQN5 1-234).
T1 sequence: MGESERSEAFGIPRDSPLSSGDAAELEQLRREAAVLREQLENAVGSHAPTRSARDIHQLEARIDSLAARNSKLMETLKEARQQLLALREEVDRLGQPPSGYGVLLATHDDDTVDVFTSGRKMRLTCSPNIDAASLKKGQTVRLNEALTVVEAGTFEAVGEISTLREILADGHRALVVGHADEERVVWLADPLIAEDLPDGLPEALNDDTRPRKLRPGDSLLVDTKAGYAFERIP
Put plainly: crystal structure.

Several values for one entry are separate records, joined by “and”; a condition that tells them apart may be missing. Equal entries are not always repeated.

In general, Kd refers to the concentration at which binding is half-saturated. A word on the stoichiometry N: it is a count of units in the complex or per binding partner.

In the case of Mpa (from UniProt P9WQN5), in data set [1], the Kd was 4.2 µM and 3.4 µM.

B1: Mpa coiled-coil domain, residues 46-96 (Mpa46-96) (domain or fragment)
chain: SHAPTRSARDIHQLEARIDSLAARNSKLMETLKEARQQLLALREEVDRLGQ
Take B1: the “stoichiometry N” value in “crystal structure” was 2.

B2: Full-length prokaryotic ubiquitin-like protein, Pup1-64-GGQ with a C-terminal non-cleavable His6-tag (natural protein)
chain: MAQEQTKRGGGGGDDDDIAGSTAAGQERREKLTEETDDLLDEIDDVLEENAEDFVRAYVQKGGQ
Take B2: the binding result in data set [2] is given as “binds”.
